Earlier results as cited in US20240173301A1, “2-IMINOBIOTIN FOR USE IN THE TREATMENT OF STROKE” (NEUROPHYXIA B.V., priority 2021, published 2024).

Conditions: acute ischemic stroke, intravenous thrombolysis

B1: Alteplase (protein, UniProt P00750 36-562, looked up)
Tissue-type plasminogen …: SYQVICRDEKTQMIYQQHQSWLRPVLRSNRVEYCWCNSGRAQCHSVPVKSCSEPRCFNGGTCQQALYFSDFVCQCPEGFAGKCCEIDTRATCYEDQGISYRGTWSTAESGAECTNWNSSALAQKPYSGRRPDAIRLGLGNHNYCRNPDRDSKPWCYVFKAGKYSSEFCSTPACSEGNSDCYFGNGSAYRGTHSLTESGASCLPWNSMILIGKVYTAQNPSAQALGLGKHNYCRNPDGDAKPWCHVLKNRRLTWEYCDVPSCSTCGLRQYSQPQFRIKGGLFADIASHPWQAAIFAKHRRSPGERFLCGGILISSCWILSAAHCFQERFPPHHLTVILGRTYRVVPGEEEQKFEVEKYIVHKEFDDDTYDNDIALLQLKSDSSRCAQESSVVRTVCLPPADLQLPDWTECELSGYGKHEALSPFYSERLKEAHVRLYPSSRCTSQHLLNRTVTDNMLCAGDTRSGGPQANLHDACQGDSGGPLVCLNDGRMTLVGIISWGLGCGQKDVPGVYTKVTNYLDWIRDNMRP
notes: fibrinolytic drug
In the case of B1, the “risk of a poor outcome” value is given as “reduced the risk of a poor outcome”.
